Test results: patent publication US20200024319A1 (Amgen, published 2020)
Substitutions are numbered along the chain they refer to. Names may count otherwise.

T1: CD25 (IL-2Rα) on the surface of T cells (human, UniProt P01589 22-272)
T1 construct: whole, on cells; also called cell surface CD25
T1 sequence (looked up): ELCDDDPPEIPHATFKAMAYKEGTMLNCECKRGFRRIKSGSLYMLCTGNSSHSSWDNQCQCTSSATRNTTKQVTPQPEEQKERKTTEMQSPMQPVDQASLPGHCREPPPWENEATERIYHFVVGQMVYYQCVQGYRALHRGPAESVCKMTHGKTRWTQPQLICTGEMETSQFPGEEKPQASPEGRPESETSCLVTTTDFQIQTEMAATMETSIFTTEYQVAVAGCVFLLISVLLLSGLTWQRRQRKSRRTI

B1: haD5 fused to the amino terminus of Fc, separated by a GGGGS linker (Fc fusion)
chain: APTSSSTKKTQLQLQNLLLDLQMILNGISNHKNPRLARMLTFKFYMPEKATELKHLQCLEEELKPLEEALRLAPSKNFHLRPRDLISDINVIVLELKGSETTFMCEYADETATIVEFLNRWITFSQSIISTLTGGGGS
notes: IL-2 mutein N-terminal of the Fc; dimer by the Fc; also called haD5 Fc fusion; not shown: IgG1 Fc with an effector function mutation (A327Q, L234A+L235A or N297G)
B2: 18F3 (antibody, V domains shown)
VH: QVQLQESGPGLVKPSQTLSLTCTVSGGSISSGGYYWSWIRQHPGKGLEWIGYIYYSGSTDYNPSLKSRGIISGDTSKNQFSLKLNSVTAADTAVYYCAREGRFGELGSYYFDYWGQGTLVTVSS
VL: SYELTQPPSVSVSPGQTARIACSGDALPRKFAYWYQQKSGQAPVLVISEDSRRPSGIPERFSGSSSGTMATLTISGAQVEDEADYYCFSTDSSANHRVFGGGTKLTVL
B3: 2H11 (antibody, V domains shown)
VH: EVQLVQSGAEVKKPGESLKISCKGSGYNFTTYWIGWVRQMPGKGLEWMGIIYPGDSDTRYSPSFQGQVTISADKSINTAYLQWSSLKASDTAIYYCARDTGYFDYWGQGTLVTVSS
VL: B2 VL with A21T, S48Y, S51R, R52K, F88Y, S92R, A94G, N95D, R97V
B4: 2C3 (antibody, V domains shown)
VH: EVQLVQSGAEVKKPGESLKISCKGSGYRFTSYWIGWVRQMPGKGLEWMGIIYPGDSDTRYSPSFQGQVTISADKSISAAYLQWSSLKASDTAMYYCARQQVAGMLDYWGQGTLVTVSS
VL: EIVLTQSPGTLSLSPGERATLSCRASQSFSSSYLVWYQQKPGQAPRLLIYGASSRATGIPDRFGGSGSGTDFTLTISRLEPEDFAVYYCQQYGSSPLTFGGGTKVEIK
B5: 9D6 (antibody, V domains shown)
VH: EVQLVQSGAEVKKPGESLKISCKGSGYRFTSYWIGWVRQMPGKGLEWMGIIHPGDSDTRYSPSFQGQVTISADKSISTAYLQWSSLKASDTAIYYCTRQGRSFYYYGMDVWGQGTTVTVSS
VL: DIVMTQTPLSLPVTPGEPASISCRSSQSLLDSDEGNTYLDWYLQKPGQSPQLLIYTLSYRASGVPDRFSGTGSDTDFTLKISRVEAEDVGVYYCMQRIEFPLTFGGGTKVEIK
B6: 9B10 (antibody, V domains shown)
VH: QVQLVESGGGVVQPGRSLRLSCAASGFTFSSYAMHWVRQAPGKGLEWVAVIWYDGINKYYADSVKGRFTISRDNSKNTLYLQMNSLRAEDTAVYYCARGSYYDSSGYYFGEDFDYWGQGTLVTVSS
VL: DIVMTQTPLSSPVTLGQPASISCRSSHNLLHSDGNTYLSWLQQRPGQPPRLLIYEISNRFSGVPDRFSGSGAGTDFTLKISRVEAEDVGVYYCMQVTQFPTFGGGTKVEIK
B7: 14G7 (antibody, V domains shown)
VH: EVQLVQSGAEVKKPGESLKISCKGSGYSFTDYWIGWVRQMPGKGLEWMGIIYPYDSDTRYSPSFQGQVTLSADKSISTAYLRWSSLKASDTAMYYCARHRGGRSYYYGMDVWGQGTTVTVSS
VL: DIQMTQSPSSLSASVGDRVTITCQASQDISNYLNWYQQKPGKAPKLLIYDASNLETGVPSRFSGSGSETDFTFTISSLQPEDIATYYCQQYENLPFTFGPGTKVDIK
B8: 14D7 (antibody, V domains shown)
VH: QVQLQESGPGLVKPSQTLSLTCTVSGGSISSGGYYWNWIRQHPGKGLEWIGYIYYSGNTHYNPSLKSRVTISVDTSKNQFSLKLSSVIAADTAVYYCARDWGRDAFDIWGQGTMVTVSS
VL: DIQMTQSPSSLSASVGDRVTITCRASQTISSYLNWYQQKPGKAPKVLIYAASSFQSGVPSRFSGSGSGTDFTLTISSLQPEDFATYYCQQSHYIPRTFGQGTKVEIK
B9: 26C12 (antibody, V domains shown)
VH: EVQLVQSGAEVKKPGESLKISCKGSGYRFTSYWIGWVRQMPGKGLEWMGIIFPGDSDTRYSPSFQGQVTISADKSITTAYLQWSSLKASDTAIYYCARHGHGSSSGRTYYYGLDVWGQGTTVTVSS
VL: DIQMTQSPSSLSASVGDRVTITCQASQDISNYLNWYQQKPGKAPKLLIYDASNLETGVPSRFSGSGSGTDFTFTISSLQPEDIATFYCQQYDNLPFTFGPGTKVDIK
B10: 26H7 (antibody, V domains shown)
VH: EVQLVQSGAEVKKPGESLKISCKGSGYRFTNYWIGWVRQMPGKGLEWMGIIYPGDSDTKYSPSFQGQVTISADKSISTAYLQWSSLKASDTAMYYCARHGGYSGRSYYYGMDVWGQGTAVTVSS
VL: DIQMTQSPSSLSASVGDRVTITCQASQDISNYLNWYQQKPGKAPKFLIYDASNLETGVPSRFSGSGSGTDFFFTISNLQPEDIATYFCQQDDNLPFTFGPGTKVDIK
B11: HaMut1D (V69A, Q74P, N88D, C125A) (ligand)
chain: APTSSSTKKTQLQLEHLLLDLQMILNGINNYKNPKLTRMLTFKFYMPKKATELKHLQCLEEELKPLEEALNLAPSKNFHLRPRDLISDINVIVLELKGSETTFMCEYADETATIVEFLNRWITFAQSIISTLT
notes: not shown: C-terminal FLAG and poly-His tag
B12: HaMut2D (N30S, V69A, Q74P, N88D, C125A) (ligand)
chain: B11 chain with N30S
notes: human IL-2 mutein; not shown: C-terminal FLAG and poly-His tag
B13: HaMut6D (E68D, V69A, Q74P, N88D, C125A) (ligand)
chain: B11 chain with E68D
notes: as for B12
B14: HaMut7D (N71R, V69A, Q74P, N88D, C125A) (ligand)
chain: B11 chain with N71R
notes: as for B12
B15: HaMut4D (T37A, V69A, Q74P, N88D, C125A) (ligand)
chain: B11 chain with T37A
notes: as for B12
B16: HaMut5D (K48E, V69A, Q74P, N88D, C125A) (ligand)
chain: B11 chain with K48E
notes: as for B12
B17: HaMut8D (K35R, K48E, E68D, N88D, C125A) (ligand)
chain: B11 chain with K35R, K48E, E68D, A69V, P74Q
notes: as for B12
B18: HaMut3D (K35R, V69A, Q74P, N88D, C125A) (ligand)
chain: B11 chain with K35R
notes: as for B12

These binders were tested against T1, CD25 (IL-2Rα) on the surface of T cells (assay: binding to cell surface CD25 (method not described)).

B1: binds.

The binders below were run against T2, cynomolgus monkey IL-2 (cynomolgus monkey, UniProt Q29615 21-154) (assay: BIACORE).
T2 construct: also called cyno IL-2

First: B2
Second: B3
The Kd of the first is 6.2-fold higher: roughly 0.05 nM for the first, roughly 0.008 nM for the second.

First: B4
Second: B5
The Kd of the first is 13-fold lower: roughly 0.0012 nM for the first, roughly 0.016 nM for the second. The first binds more tightly here.

B6 and B7 are within 1.5-fold of each other in Kd: roughly 0.16 nM for the first, roughly 0.13 nM for the second.

B8 and B9 are within 1.5-fold of each other in Kd: roughly 0.14 nM for the first, roughly 0.13 nM for the second.

B10 was tested, and the Kd was roughly 0.31 nM.

The binders below were run against T3, wild-type human IL-2 (human, UniProt P60568 21-153) (assay: BIACORE).
T3 construct: also called hIL-2

Compared with B2, B3 is 1.7-fold lower in Kd: roughly 0.05 nM for the first, roughly 0.03 nM for the second. The second binds more tightly here.

First: B5
Second: B6
The Kd of the first is 2.7-fold lower: roughly 0.041 nM for the first, roughly 0.11 nM for the second. The first binds more tightly here.

B7 and B8 are within 1.5-fold of each other in Kd: roughly 0.28 nM for the first, roughly 0.3 nM for the second.

Compared with B9, B10 is 210-fold lower in Kd: roughly 0.27 nM for the first, roughly 0.0013 nM for the second. The second binds more tightly here.

Each binder was assayed against T1, CD25 (IL-2Rα) on the surface of T cells (assay: flow cytometry, binding to CD25 on the surface of activated T cells).

First: B11
Second: B14
The Kd of the first is 10-fold higher: roughly 2 nM for the first, roughly 0.2 nM for the second.

B12: binds.
B13: binds.
B15: binds.
B16: binds.
B17: binds.
B18: binds.
